According to patent publication US20250277029A1, “CANNABINOID TYPE 1 RECEPTOR BINDING PROTEINS AND USES THEREOF” (AMGEN INC., priority 2022, published 2025):
Changes are numbered by the printed parent chain.

Key:
XCR1-SMALP = biological target: T1, XCR1-SMALP (Homo sapiens, UniProt P46094); experiment: Yeast-display non-specific binding to irrelevant XCR1-SMALP; details: after background subtraction; for 50 nM XCR1 SMALP, relative binding fold change: fold change compared to LIBC523797-1(Fab); for 25 nM XCR1-SMALP-GFP, relative binding fold change: fold change compared to LIBC528116 (Fab)
T1 sequence (P46094 1-333): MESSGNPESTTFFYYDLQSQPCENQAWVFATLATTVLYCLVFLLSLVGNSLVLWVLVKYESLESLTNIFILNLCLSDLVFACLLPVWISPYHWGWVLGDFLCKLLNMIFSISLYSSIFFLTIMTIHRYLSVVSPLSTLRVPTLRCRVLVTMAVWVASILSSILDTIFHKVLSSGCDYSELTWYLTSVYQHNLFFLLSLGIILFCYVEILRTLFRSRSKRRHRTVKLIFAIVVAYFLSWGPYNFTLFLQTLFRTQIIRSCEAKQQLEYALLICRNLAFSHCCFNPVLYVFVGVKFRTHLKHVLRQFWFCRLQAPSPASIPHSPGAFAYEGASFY
Description: All eighteen cognate variants met the stringent binding improvement threshold against huCB1I-GFP-SMALP and had minimal binding to irrelevant XCR1-SMALP and empty-ND (Table 32). […] For LIBC674043-1 and LIBC674200-1, VH R149S and VL G76D germline reversion mutations were also included in the panel of IgG1 SEFL2 mAbs produced for functional testing.

[1] = tested on: diet-induced obese (DIO) huCB1 knock in (KI) mice; experiment: Diet-induced obese huCB1 knock in mice, 30 mg/kg QW for 35 days: body weight, food intake, fat mass, liver weight; type: in vivo, mouse; details: YTE format
Experimental: The further affinity matured antibodies LIBC673952 (52777) and LIBC680574 (52778) in YTE format (Dall'Acqua et al., The Journal of Immunology, 169: 5171-5180 (2002)) was scaled up for testing in diet-induced obese (DIO) transgenic mice with huCB1 knocked in. […] The antibodies (52777, 52778, and 37940) and a control antibody (huIgG control) were administered to the mice at 30 mg/kg QW for 35 days, and the body weight and food intake of the animals were measured every 3-4 days and the results are shown in FIGS. 10A and 10B.

CB1-nanodisc = experiment: Octet affinity assay with CB1-nanodisc; type: binding, human; details: 1:1 Langmuir model
Experimental: Affinity assay using Octet. The Octet@HTX (Sartorius, Germany) instrument was used to determine affinities of anti-CB1 antibodies. Prior to experiment, Streptavidin (SA) biosensors (ForteBio, #18-5021) were pre-hydrated for 10 min in Octet assay buffer containing 10 mM Tris (Fisher, #BP152-1), 150 mM NaCl (Fisher, #5271-10), 1 mM CaCl2) (Fisher, #BP510-500), 0.1 mg/mL BSA (BioShop, #ALB001.1), and 0.1% Triton-X 100 (Calbiochem, #9410-OP), pH7.4. SA biosensors were loaded with biotinylated anti-human Fc antibody (Invitrogen, #A18827) followed by one baseline step of 60 s in Octet assay buffer. Anti-CB1 antibodies were prepared in Octet assay buffer and captured by the anti-human Fc antibody prior to being submerged in wells containing different concentrations of CB1-nanodisc (#CB1-008, in-house) for 5 min, followed by 10 min dissociation. […] SA biosensors were used once without regeneration. For data evaluation, ForteBio Data Analysis v11.0 software was used. The kinetic rate constants, association rate constant (ka, M−1s−1), dissociation rate constant (kd, s−1), and the equilibrium rate constant (KD, M) were determined by using a 1:1 Langmuir model.

B1: LIBC673952-1: further cognate affinity-matured variant; HV SEQ ID NO: 368, LV SEQ ID NO: 367; 52777 in YTE format (antibody, V domains shown)
VH: QVQLQESGPGLVKPSQTLSLTCTVSGGSIRRGGDYWSWIRQHPGKGLEWIGHVYYTGQTTYNPSFRGRVTISVNTYKNQFSLKLSSVTAADTAVYYCARDYDILTGYSYYYYGLDVWGQGTTVTVSS
VL: DIVMTQSPLSLPVTPGEPASISCRSSQSLLHRSGYNYLDWYLQKPGQSPQLLIYQGSNRASGVPDRFSGSGSGTDFTLKISRVEAEDVGVYYCRQARALPRTFGQGTKVEIKR
modifications: YTE Fc format
notes: 52777 in YTE format
- 50 nM XCR1 SMALP, relative binding fold change (XCR1-SMALP): 0.59
- average daily food intake [1]: did not change significantly
- body weight of the animals [1]: reduced body weight

B2: LIBC523661-1: cognate affinity-matured 10D10 variant; HV SEQ ID NO: 98, LV SEQ ID NO: 97 (antibody, V domains shown)
VH: B1 VH with V53I, T56E, Q58S, T60K, R66K, V69A, I103P, L104V, Y107H, L114M
VL: B1 VL with H31T, R32S, L38V, L99I
- Octet (nanodisc) k off (CB1-nanodisc): 0.00275 s⁻¹
- Octet (nanodisc) k on (CB1-nanodisc): 35700 M⁻¹ s⁻¹

B3: LIBC680812-1: further VK1 LC-optimized affinity-matured variant (antibody, V domains shown)
VH: B1 VH with S37G, Y55Q, Q58S, T60K, R66K, G67D, V69A, D100N, I103T, L114M
VL: DIQMTQSPSSLSASVGDRVTITCRASQSISSYLNWYQQKPGKAPKLLIYSARRLSSGVPSRFSGSGSGTDFTLTISSLQPEDFATYYCQQYRSYPITFGGGTKVEIKR
- 25 nM XCR1-SMALP-GFP, relative binding fold change (XCR1-SMALP): 0.59

B4: LIBC527814-1: LC-swapped affinity-matured 10D10 variant; HV SEQ ID NO: 236, LV SEQ ID NO: 235 (antibody, V domains shown)
VH: B1 VH with S37G, Y55Q, Q58S, T60K, R66K, G67D, V69A, D100N, I103T, L114M
VL: B3 VL with S10T, S31N, S50A, R52S, R53S, S55H, T85S, R92Q, I96L, G100Q
- Octet (nanodisc) k off (CB1-nanodisc): 0.00198 s⁻¹
- Octet (nanodisc) k on (CB1-nanodisc): 56600 M⁻¹ s⁻¹

B5: LIBC674229-1: further cognate affinity-matured variant (antibody, V domains shown)
VH: QVQLQESGPGLVKPSQTLSLTCTVSGGSIRRGGDYWSWIRQHPGKGLEWIGHIYQTGQTKYNPSFKGRVRISVNTYKNQFSLKLSSVTAADTAVYYCARGYDVSGYSYYYYGMDVWGQGTTVTVSS
VL: B1 VL with R94M, A96S, R97L, A98Q, L99T
- 50 nM XCR1 SMALP, relative binding fold change (XCR1-SMALP): 0.80

B6: LIBC680574-1: further VK1 LC-optimized variant; HV SEQ ID NO: 460, LV SEQ ID NO: 459; 52778 in YTE format (antibody, V domains shown)
VH: B1 VH with S37A, Q58S, T60K, R66K, G67D, V69A, D100N, I103T, L114M
VL: B3 VL with S50G, S55G, R92S, Y94L, I96V
modifications: YTE Fc format
notes: further VK1 LC-optimized variant; 52778 in YTE format
- 25 nM XCR1-SMALP-GFP, relative binding fold change (XCR1-SMALP): 0.56
- average daily food intake [1]: did not change significantly
- body weight of the animals [1]: reduced body weight

B7: LIBC674090-1: further cognate affinity-matured variant (antibody, V domains shown)
VH: B5 VH with Q55Y, T56A, Q58S, K60A, S64N, K66R, V103T, M113L
VL: B1 VL with R94M, A96S, R97L, A98Q, L99T
- 50 nM XCR1 SMALP, relative binding fold change (XCR1-SMALP): 0.74

B8: LIBC674200-1: further cognate affinity-matured variant (antibody, V domains shown)
VH: B5 VH with I53V, Q55Y, K60A, S64N, K66R, G67N
VL: B1 VL with Q55L, D65G, R94M, A96S, R97L, A98Q, L99T
- 50 nM XCR1 SMALP, relative binding fold change (XCR1-SMALP): 0.79

B9: LIBC527997-1: LC-swapped affinity-matured 10D10 variant; HV SEQ ID NO: 226, LV SEQ ID NO: 225 (antibody, V domains shown)
VH: QVQLQESGPGLVKPSQTLSLTCTVSGGSIRRGGDYWAWIRQHPGKGLEWIGHIYQTGSTNYNPRFKGRATISVNTYKNQFSLKLSSVTAADTAVYYCARNYDTLTGYSYYYYGMDVWGQGTTVTVSS
VL: B3 VL with S31N, S50A, R52S, R53S, S55H, T85S, R92Q, I96L, G100Q
- Octet (nanodisc) k off (CB1-nanodisc): 0.00136 s⁻¹
- Octet (nanodisc) k on (CB1-nanodisc): 51800 M⁻¹ s⁻¹

B10: LIBC681593-1: further VK1 LC-optimized affinity-matured variant (antibody, V domains shown)
VH: B9 VH
VL: B3 VL with S50N, S55G, Y94S, I96V
- 25 nM XCR1-SMALP-GFP, relative binding fold change (XCR1-SMALP): 0.72

B11: LIBC680800-1: further VK1 LC-optimized affinity-matured variant (antibody, V domains shown)
VH: B9 VH
VL: B3 VL with R53A, S93K, Y94F, I96L
- 25 nM XCR1-SMALP-GFP, relative binding fold change (XCR1-SMALP): 0.47

B12: LIBC680562-1: further VK1 LC-optimized affinity-matured variant (antibody, V domains shown)
VH: B9 VH
VL: B3 VL with R92A, S93K, Y94S
- 25 nM XCR1-SMALP-GFP, relative binding fold change (XCR1-SMALP): 0.64

B13: LIBC527919-1: LC-swapped affinity-matured 10D10 variant; HV SEQ ID NO: 252, LV SEQ ID NO: 251 (antibody, V domains shown)
VH: B9 VH with I53V, N60A, R64N, G67D, T103A, T105S
VL: B3 VL with M4L, S30I, S50A, R52S, R53S, S55R, R92S, S93N, I96L, K103R
- Octet (nanodisc) k off (CB1-nanodisc): 0.00339 s⁻¹
- Octet (nanodisc) k on (CB1-nanodisc): 56200 M⁻¹ s⁻¹
